Patent EP4772193A1 (Teijin Pharma Limited, dated 2026)
Positions count from the first letter of the chain named. In names and notes the source's numbering stands.

B1: hGPN06-1_H1L1 VL T50A (antibody, V domains shown)
VH: QVQLVQSGAEVKKPGASVKVSCKASGYTFTDNWMGWVKQRPGQGLEWIGAIDPSDSFTNYNQNFKGRVTMTVDTSISTAYMELSRLRSDDSAVYFCTRSGYYGSPKLGGDYWGQGTLVTVSS
VL: EIVLTQSPSSLSASVGDRVTITCSASSSISYMHWYQQKSGTAPKLLIYSASNLASGVPSRFSGSGSGTDFTFTISSLQPEDAATYYCHQWNSYPCTFGGGTKLEIK
B2: hGPN06-1_H1L1 VL T96A (antibody, V domains shown)
VH: B1 VH
VL: B1 VL with A50T, T96A
B3: hGPN06-1_H1L1 VL W90A (antibody, V domains shown)
VH: B1 VH
VL: B1 VL with A50T, W90A
B4: hGPN18-2_H2L3 VH D52A (antibody, V domains shown)
VH: QVQLVQSGPGLVQPTQTLTLTCSFSGFSLSTSVMGVGWIRQPSGKGLEWLAAIWWDDDKDYNPSLKSRLTISKDTSKNQVVLTMTNMDTVDTATYYCARTYYSNYEYYGMDYWGQGTLVTVSS
VL: DIVMTQSPDSLAVSLGERATINCRSSQTIILSNGNTYLEWYQQKPGQPPKLLIYKVSNRFSGVPDRFSGSGSGTDFTLTISSLQAEDVAVYYCFQGSHVPFTFGSGTKLEIKR
B5: hGPN18-2_H2L3 VH S30A (antibody, V domains shown)
VH: B4 VH with S30A, A52D
VL: B4 VL
B6: hGPN18-2_H2L3 VH D56A (antibody, V domains shown)
VH: B4 VH with A52D, D56A
VL: B4 VL
B7: hGPN18-2_H2L3 VH M34A (antibody, V domains shown)
VH: B4 VH with M34A, A52D
VL: B4 VL
B8: hGPN18-2_H2L3 VH I53A (antibody, V domains shown)
VH: B4 VH with A52D, I53A
VL: B4 VL
B9: hGPN18-2_H2L3 VH V33A (antibody, V domains shown)
VH: B4 VH with V33A, A52D
VL: B4 VL
B10: hGPN18-2_H2L3 VH L29A (antibody, V domains shown)
VH: B4 VH with L29A, A52D
VL: B4 VL
B11: hGPN18-2_H2L3 VH F27A (antibody, V domains shown)
VH: B4 VH with F27A, A52D
VL: B4 VL
B12: hGPN18-2_H2L3 VH G26A (antibody, V domains shown)
VH: B4 VH with G26A, A52D
VL: B4 VL
B13: hGPN18-2_H2L3 VH D60A (antibody, V domains shown)
VH: B4 VH with A52D, D60A
VL: B4 VL
B14: hGPN18-2_H2L3 VH W55A (antibody, V domains shown)
VH: B4 VH with A52D, W55A
VL: B4 VL
B15: hGPN18-2_H2L3 VH W54A (antibody, V domains shown)
VH: B4 VH with A52D, W54A
VL: B4 VL
B16: hGPN18-2_H2L3 VH D58A (antibody, V domains shown)
VH: B4 VH with A52D, D58A
VL: B4 VL
B17: hGPN18-2_H2L3 VH G35A (antibody, V domains shown)
VH: B4 VH with G35A, A52D
VL: B4 VL
B18: hGPN18-2_H2L3 VH K59A (antibody, V domains shown)
VH: B4 VH with A52D, K59A
VL: B4 VL
B19: hGPN18-2_H2L3 VH T31A (antibody, V domains shown)
VH: B4 VH with T31A, A52D
VL: B4 VL
B20: hGPN18-2_H2L3 VH S32A (antibody, V domains shown)
VH: B4 VH with S32A, A52D
VL: B4 VL
B21: hGPN18-2_H2L3 VH G37A (antibody, V domains shown)
VH: B4 VH with G37A, A52D
VL: B4 VL
B22: hGPN18-2_H2L3 VH D57A (antibody, V domains shown)
VH: B4 VH with A52D, D57A
VL: B4 VL
B23: hGPN18-2_H2L3 VH V36A (antibody, V domains shown)
VH: B4 VH with V36A, A52D
VL: B4 VL
B24: hGPN18-2_H2L3 VH S28A (antibody, V domains shown)
VH: B4 VH with S28A, A52D
VL: B4 VL
B25: hGPN18-2_H2L3 VH L65A (antibody, V domains shown)
VH: B4 VH with A52D, L65A
VL: B4 VL
B26: hGPN18-2_H2L3 VH K66A (antibody, V domains shown)
VH: B4 VH with A52D, K66A
VL: B4 VL
B27: hGPN18-2_H2L3 VH G109A (antibody, V domains shown)
VH: B4 VH with A52D, G109A
VL: B4 VL
B28: hGPN18-2_H2L3 VH E106A (antibody, V domains shown)
VH: B4 VH with A52D, E106A
VL: B4 VL
B29: hGPN18-2_H2L3 VH D111A (antibody, V domains shown)
VH: B4 VH with A52D, D111A
VL: B4 VL
B30: hGPN18-2_H2L3 VH N104A (antibody, V domains shown)
VH: B4 VH with A52D, N104A
VL: B4 VL
B31: hGPN18-2_H2L3 VH N62A (antibody, V domains shown)
VH: B4 VH with A52D, N62A
VL: B4 VL
B32: hGPN18-2_H2L3 VH P63A (antibody, V domains shown)
VH: B4 VH with A52D, P63A
VL: B4 VL
B33: hGPN18-2_H2L3 VH R99A (antibody, V domains shown)
VH: B4 VH with A52D, R99A
VL: B4 VL
B34: hGPN18-2_H2L3 VH M110A (antibody, V domains shown)
VH: B4 VH with A52D, M110A
VL: B4 VL

molecular target: T1, recombinant human soluble gpNMB (recombinant human gpNMB-FLAG-His) (human, UniProt Q14956 23-498); assay: antigen ELISA
T1 sequence: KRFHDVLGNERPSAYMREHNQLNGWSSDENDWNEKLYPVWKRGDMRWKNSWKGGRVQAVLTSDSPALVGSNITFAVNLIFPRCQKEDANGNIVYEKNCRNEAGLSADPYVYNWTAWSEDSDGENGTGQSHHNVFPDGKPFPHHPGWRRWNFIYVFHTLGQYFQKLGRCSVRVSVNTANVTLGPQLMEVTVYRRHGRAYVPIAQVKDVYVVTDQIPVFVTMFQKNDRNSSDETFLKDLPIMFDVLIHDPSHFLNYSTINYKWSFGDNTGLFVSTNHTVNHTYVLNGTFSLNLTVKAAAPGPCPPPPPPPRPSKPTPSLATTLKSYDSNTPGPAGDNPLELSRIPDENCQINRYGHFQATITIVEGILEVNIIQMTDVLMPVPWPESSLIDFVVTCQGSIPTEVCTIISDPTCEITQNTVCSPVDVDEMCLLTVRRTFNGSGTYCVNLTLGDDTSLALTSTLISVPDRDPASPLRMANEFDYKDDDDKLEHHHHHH

Q: Which EC50 does the source give for B1 here?
A: 3.19 nM

Q: Which EC50 does the source give for B2 here?
A: 1.03 nM

Q: For B3, which EC50 is on record?
A: 122 nM

molecular target: T1, recombinant human soluble gpNMB …; assay: antigen ELISA, vs hGPN18-2_H2L3

Q: With B4 as the binder, how does the Relative binding activity read?
A: 0.05

Q: Which Relative binding activity does the source give for B5 here?
A: 0.97

Q: Which Relative binding activity does the source give for B6 here?
A: 0.63

Q: How did the Relative binding activity turn out when B7 was run?
A: 0.91

Q: For B8, which Relative binding activity is on record?
A: 0.6

Q: Which Relative binding activity does the source give for B9 here?
A: 0.55

Q: For B10, which Relative binding activity is on record?
A: 0.82

Q: How did the Relative binding activity turn out when B11 was run?
A: 0.69

Q: With B12 as the binder, how does the Relative binding activity read?
A: 0.84

Q: B13 was tested. Which Relative binding activity did it give?
A: 0.98

Q: How did the Relative binding activity turn out when B14 was run?
A: 0.66

Q: How did the Relative binding activity turn out when B15 was run?
A: 0.2

Q: With B16 as the binder, how does the Relative binding activity read?
A: 0.5

Q: How did the Relative binding activity turn out when B17 was run?
A: 0.68

Q: With B18 as the binder, how does the Relative binding activity read?
A: 0.78

Q: How did the Relative binding activity turn out when B19 was run?
A: 0.97

Q: Which Relative binding activity does the source give for B20 here?
A: 0.78

Q: Which Relative binding activity does the source give for B21 here?
A: 0.87

Q: How did the Relative binding activity turn out when B22 was run?
A: 0.86

Q: How did the Relative binding activity turn out when B23 was run?
A: 0.92

Q: For B24, which Relative binding activity is on record?
A: 0.88

molecular target: T1, recombinant human soluble gpNMB …; assay: antigen ELISA, vs hGPN06-1_H1L1

Q: For B1, which Relative binding activity is on record?
A: 0.3

Q: With B2 as the binder, how does the Relative binding activity read?
A: 0.83

Q: For B3, which Relative binding activity is on record?
A: 0.13

molecular target: T1, recombinant human soluble gpNMB …; assay: antigen ELISA; remark: another data set of the same source

Q: B25 was tested. Which EC50 did it give?
A: 5.04 nM

Q: Which EC50 does the source give for B26 here?
A: 4.96 nM

Q: How did the EC50 turn out when B27 was run?
A: 10.5 nM

Q: With B28 as the binder, how does the EC50 read?
A: 10.8 nM

Q: B29 was tested. Which EC50 did it give?
A: 11.3 nM

Q: Which EC50 does the source give for B30 here?
A: 5.62 nM

Q: With B31 as the binder, how does the EC50 read?
A: 4.58 nM

Q: B32 was tested. Which EC50 did it give?
A: 12 nM

Q: Which EC50 does the source give for B33 here?
A: 10.6 nM

Q: With B34 as the binder, how does the EC50 read?
A: 23.4 nM

molecular target: T1, recombinant human soluble gpNMB …; assay: antigen ELISA, vs hGPN18-2_H2L3; remark: another data set of the same source

Q: For B25, which Relative binding activity is on record?
A: 0.94

Q: B26 was tested. Which Relative binding activity did it give?
A: 0.96

Q: For B27, which Relative binding activity is on record?
A: 0.61

Q: With B28 as the binder, how does the Relative binding activity read?
A: 0.64

Q: With B29 as the binder, how does the Relative binding activity read?
A: 0.62

Q: For B30, which Relative binding activity is on record?
A: 0.8

Q: For B31, which Relative binding activity is on record?
A: 0.97

Q: For B32, which Relative binding activity is on record?
A: 0.43

Q: For B33, which Relative binding activity is on record?
A: 0.37

Q: Which Relative binding activity does the source give for B34 here?
A: 0.41

molecular target: T1, recombinant human soluble gpNMB …; assay: antigen ELISA; remark: another data set of the same source

Q: Which EC50 does the source give for B4 here?
A: 100 nM

Q: For B5, which EC50 is on record?
A: 6.6 nM

Q: How did the EC50 turn out when B6 was run?
A: 8.98 nM

Q: With B7 as the binder, how does the EC50 read?
A: 3.58 nM

Q: B8 was tested. Which EC50 did it give?
A: 6.94 nM

Q: With B9 as the binder, how does the EC50 read?
A: 8.88 nM

Q: With B10 as the binder, how does the EC50 read?
A: 4.41 nM

Q: For B11, which EC50 is on record?
A: 5.47 nM

Q: Which EC50 does the source give for B12 here?
A: 3.92 nM

Q: For B13, which EC50 is on record?
A: 3.13 nM

Q: B14 was tested. Which EC50 did it give?
A: 8.36 nM

Q: With B15 as the binder, how does the EC50 read?
A: 38 nM

Q: B16 was tested. Which EC50 did it give?
A: 10.2 nM

Q: With B17 as the binder, how does the EC50 read?
A: 5.16 nM

Q: How did the EC50 turn out when B18 was run?
A: 4.42 nM

Q: Which EC50 does the source give for B19 here?
A: 3.12 nM

Q: Which EC50 does the source give for B20 here?
A: 4.31 nM

Q: B21 was tested. Which EC50 did it give?
A: 3.32 nM

Q: How did the EC50 turn out when B22 was run?
A: 5.61 nM

Q: Which EC50 does the source give for B23 here?
A: 3.43 nM

Q: For B24, which EC50 is on record?
A: 3.22 nM
